# Results as given in a protein production outcome set (Wang et al. 2014).
# Assay: label from the status in PepcDB records
row,Sequence,protein production
1,ESLQQVVMAYFGVQFKSEQKAIALKAMQHIVQSFSLDNGPQNHDITHHTDNQGYENYIVVGYWRDPGAYCRWFRSTEVSHWWDSDERLNDGIGYFREIVIPRADQFETLYAFKEDLPGVGAVMDDISDDIQEHGYWGSARERF,not failed
2,MTTLEAFAKARSEGRAALIPYLTAGFPSREGFLQAVEEVLPYADLLEIGLPYSDPLGDGPVIQRASELALRKGMSVQGALELVREVRALTEKPLFLMTYLNPVLAWGPERFFGLFKQAGATGVILPDLPPDEDPGLVRLAQEIGLETVFLLAPTSTDARIATVVRHATGFVYAVSVTGVTGMRERLPEEVKDLVRRIKARTALPVAVGFGVSGKATAAQAAVADGVVVGSALVRALEEGRSLAPLLQEIRQGLQRLEANPGLKESSKKPLP,not failed
3,DDNSYSLGDIWIAVATVVPEGNNVYYLRLDDGDKLWPAATNYPNYQPKPNQRALVNFTILADSTQSNLGGFSHYIKVNAIHNILTKSIAKNEGAANDSIYGTDPVSIYNNNMWIGDGYLNIYFETLWGGKTAHFINLIQPDAENDPYTLEFRHNAYDDPQYTIGAGRVAFNLSSLPDTKGETVDLVVNYWTSEGKQAYKLKYNSDKTKMEDTSQGYTNDSISNITDMK,not failed
4,MKRYPRDMRGHGPTPPDAAWPGGARIAVSIVLNYEEGGENCLLHGDAQSEAFLSDIAGAQPWPGQRHWNMESIYDYGARAGFWRLHRLFTGLNIPVTVYGVATALARSPEQVAAMKSAGWEIASHGLKWVEHRDMPEEEERRQIAEAIRLHAEVVGERPRGWYTGRCSVNTVRLTAEEGGFDWISDTYDDDQPYWLETGTRDQLVIPYTLEANDMRFATAPGYIEGEQFFTYLRDSFDTLYAEGCAGQAKMFSIGLHCRLIGRPGKIAGLKRFLDYARTHERVWFPCRGDIARHWHETHPHRRRPRPSRMDRESFVAHFGGIYEHSPWIAERAFELELGPAHDSPAGLANALARIFRSATPAERLSVLKAHPDLAGKLAQARRLTASSSFEQSSAGLDALTDAERAEFATLNADYVAKHGFPFIIAVRDHDKAGILAAFETRLAHDSATEFATACRQVERIAELRLQDMLKLEHHHHHH,failed
5,MKILPFIARGTSYYLKMSVKKLVPFLVVGLMLAAGDSVYAYSRGNGSIARGDDYPAYYKNGSQEIDQWRMYSRQCTSFVAFRLSNVNGFEIPAAYGNANEWGHRARREGYRVDNTPTIGSITWSTAGTYGHVAWVSNVMGDQIEIEEYNYGYTESYNKRVIKANTMTGFIHFKDLDGGSVGNSQSSTSTGGTHYFKTKSAIKTEPLASGTVIDYYYPGEKVHYDQILEKDGYKWLSYTAYNGSYRYVQLEAVNKNPLGNSVLSSTGGTHYFKTKSAIKTEPLVSATVIDYYYPGEKVHYDQILEKDGYKWLSYTAYNGSRRYIQLEGVTSSQNYQNQSGNISSYGSHSSSTVGWKKINGSWYHFKSNGSKSTGWLKDGSSWYYLKLSGEMQTGWLKENGLWYYLGSSGAMKTGWYQVSGKWYYSYSSGALAVNTTVDGYRVNSDGERV,failed
6,MDEIESLIGLRPTPLTWPVVIAGDFLGVWDPPPSLPGAANHEISAPTARISCMLIERRDAAARLRRALHRAPVVLLTGPRQAGKTTLSRLVGKSAPECTFDAENPVDATRLADPMLALSGLSGLITIDEAQRIPDLFPVLRVLVDRPVMPARFLILGSASPDLVGLASESLAGRVELVELSGLTVRDVGSSAADRLWLRGGLPPSFTARSNEDSAAWRDGYITTFLERDLAQLGVRIPAATMRRAWTMLAHYHGQLFSGAELARSLDVAQTTARRYLDALTDALVVRQLTPWFANIGKRQRRSPKIYIRDTGLLHRLLGIDDRLALERNPKLGASWEGFVLEQLAALLAPNPLYYWRTQQDAELDLYVELSGRPYGFEIKRTSTPSISRSMRSALVDLQLARLAIVYPGEHRFPLSDTVVAVPADQILTTGSVDELLALLK,failed
7,MELNAVKSSYARWAPIYDKTFGAITNVGRHAAVDYINAHDATELLEVGVGTGLSLPNYRPGLKVTGIDFSEEMLAKARAKVESLGLGHVQSLRQMDARDLDFADASFDVVAAMHIISVVPEPERVMAEMARVCKPGGLIVITNHFARDSGMLARVERFAAPFANLLGWHPDFEISSVLKQPDLTVIERKSLPPMGMMTFLVLQKCELEHHHHHH,not failed
8,MQDNNGPCRNFYQLVFEEGKFMPRAFLSHSSADKKSYVEMVAKKLGYNTCVYDEFSFEEGMKSAEEIMKGLSRSDLFVLFLSDSALESNWVKNELNTAQELLNTGDMKRILPIIIDKNITYKDNRIPQWLRDEYNLKYVSRPTVAARRITQKLREISWEQHPRLKEKDQIFVGRNNLTKTFEERIDAFDLQTPTCIFASGIRKIGRRTLLKNCLTKSNVVDDSYQPPIITLNSHEGLEDFIIRIYDLGFSGEFNLSDFMTTEIDHKIGIATELIRDIQVAKEILFILDNGCIITPDREINQWFLQILSHLPNQDRVTFGIASSFRLDKKYIRTRNNIFYIEVPELDKVEREGLLKRYSKFEKLELQPDELKFFGDLLNGYPEQVYYAVDLIKDLGIFQAKKDSYLIQEFNTERVNILMNKYDNNQKSKDFLYFLSEFEFVDYDFIFEIVGDEEFYINLLNELLASAICEHLGANKEYIRINDIIRDFVKRNNLSLPKEYKDKLEDHLNNFLSNYQKEEKSAADLLYSMKEALIQGKSIDEKYLIPSQFLKTMTELYDRHKRYGEIVKLADRVLQNEEYMDHRITEEIRYYLCLALARQKDSRFLQEVQKIDGANHDFLFGFFFRITGNYRKAIERLETAIEKRPHFSFAERELVNVYLLIEDFERALTLAKQNYERDKNNPYHIQAYFRCLIAEDKINGNEEKMEELLDNLNKLKTEKAKQMYMRAKAQYLAFHKDDEIGALELADLATKTYSHDIYCWFTKFDICEKYDKIDEMGNILKVLDKMIDKNSSFYSILINLKALYLAKSDQKPEALKLVFSLNNYPENALDKIIKRIESTKIPRMNKRSIKI,failed
9,MKWILAVGLLSCSVAMAQQQSDILSVSASANAENAALAFDRNVKTMWTIPSQALKAEQWLMFTIQQPGDVCELDLQMQGINKNELKEVLDIFVTYDPMNLGTPVNYRIEGSDKQMKVKFTPKYGAHVKLNFKSGKLDKPFSLKEISVLVAEKVLTDSQGKVTDRRYMDASLPVEERVESLLAVMTPEDKMELIREGWGIPGIPHLYVPPITKVEAVHGFSYGSGATIFPQALAMGATWNRKLTEEVAMVIGDETVAANTKQAWSPVLDVAQDARWGRCEETFGEDPVLVSQIGGAWIKGYQSRGLFTTPKHFGGHGAPLGGRDSHDIGLSEREMREIHLVPFRHAIRNYDCQSLMMAYSDYMGVPVAKSKELLQQILRQEWGFNGFIVSDCGAIGNLTARKHYTAKDKIEAANQALAAGIATNCGDTYNNKEVIQAAKDGRINMEDLDNVCRTMLGTMFRNELFEKNPCKPLDWKKIYPGWNSDSHKEMARQAARESIVMLENKDNLLPLSKTLRTIAVLGPGADDLQPGDYTPKLLPGQLKSVLTGIKGAVGKQTKVLYEQGCDFTNPDETNIPKAVKAASQSDVVIMVLGDCSTSEATNDVRKTCGENNDWATLILPGKQQELLEAVCATGKPVILILQAGRPYDILKASEMCKAILVNWLPGQEGGPAMADVLFGDYNPAGRLPMTFPRHVGQLPLYYNFKTSGRRYEYVDMEYYPLYRFGFGLSYTSFEYSNLKIQEKANGNVEVQATVKNVGSRAGDEVAQLYVTDMYASVKTRVMELKDFARIHLQPGESKTVSFEMTPYDISLLNDRMDRVVEKGEFKIMVGGMSPDYVAKNEIKHSVGYSDNKKGVTGMLNYTHEFGANFDLAVSKVEENLVKNQKTVWVSVKNTGTLMDIGKVEMFVDGKKVGDAVHYELGAGEEKLIPFKLAKENKQPVAFTTKYKMVSM,failed
10,MSFEAFTELYIRDVKNRLKENTWLTKEHIIRTKILPFFGKLKISEISTKEIITWQNEMLAYRDEKKKPYSQTYLKTLHNQLSAIFNHAVRYYELRSNPAAKVGNMGSELEHHHHHH,not failed
11,MKSTEKKELSHFRLKLETYLNEHFPEMSGNNPFITARSDEALTAYCDAVAQGFSHPEAESMASEVLYQGLHFSRYDTLVSVLEREFEQELPSPLPERLAPILLKNKAIQSVFAKYDLTDDFEASPEYEHLYTELTGTIVLLIESNHLPTIGGGNDTV,not failed
12,MTFSQMILNLQNYWQEQGCAIMQPYDMPAGAGTFHPATFLRSLGKKPWAAAYVAPSRRPTDGRYGENPNRLGAYYQFQVLIKPSPDNIQELYLKSLENLGFDLKSHDIRFVEDNWESPSLGAWGLGWEVWLDGMEVTQFTYFQQVGGIAVDLVSAEITYGLERIAMYLQNVDNVYDIVWSEFNGEKIKYADVHKQSEYEFSKYNFEVSDVKILNEQFENSYKECKNILEQGLALPAYDYCMLAAHTFNLLDARGAISVAQRQDYMLKIRELSKNCAEIYKKNLNEAE,not failed
13,MSPIEHAVISAAGIGSRLGLNKPKCLVEVGGKTLLAQHLERLAEIPNVWVVVGFQEELVIEQVRNLRRDAIIVRNPDFDRTNTLQSIHRVSRYLDRRFLAVDGDTFIENRSFERFLRAAAGQAGLIGVSRYTTSDGVRVLLDAGGEAVTAFTREPQHAYEWTGIAILRPDMVVDRPIYVYQALEPYLPLPAQELDAFDIDTASDLDMARRVHLNNWNLND,failed
14,MNAIISPDYYYVLTVAGQSNAMAYGEGLPLPDREDAPHPRIKQLARFAHTHPGGPSCHFNDIIPLTHCPHDVQDMQSYHHPLATNHQTQYGTVGQALHIARKLLPFIPDNAGILIVPCCRGGSAFTAGSEGTYSERHGASHDACRWGTDTPLYQDLVSRTRAALVKNPQNKFLGVCWMQGEFDLMTSDYASHPQHFNHMVEAFRRDLKQYHSQLNNITDAPWFCGDTTWYWKENFPHAYEAIYGNYQNNILANIIFVDFQQQGARGLTNAPDEDPDDLSTGYYGSAYRSPENWTTAXRSSHFSSAARRGIISDRFVEAILQFWRER,not failed
15,MPKIAKELSALEVKRLTCRIDPETGEATEVRYPVGGVSGLLLRITPSGSRQWILRAKVGNRRPDMGLGPYPEISLAQARDKAREMKEKIRSGIDPLEEKRTLKRALLAEQISTLTFQKAMEKYIKMKAKEFRNPRQEKQWTNSLNTYAIPHLGKLPVREIDLPHIKQVLDPIWETKTETANRVRARIENILGWCAIHGYRSAENPARWQGYLDEVYPSPEKIKKRGHFAALPVDDMPEFMRDLKKRTGTAARALEFLILTASRTNEVIGDKRIGKAGVTWQEIDLARKVWTVPADRMKSEKIHRVPLTDSAIELLKGMGEGSPEDLIFPGPKGGIPSNNFLTALLKRMERPITAHGFRSTFKDWARERTAYADEVSELALAHVNSDATRAAYARSELIDKRRLMMADWEQFCMHGETKKESGKVVAIGEGKG,failed
16,MGHHHHHHSHSPSPSSRVTVSRASSSRSVRTTRGKRKRVDVEESEASSSVSISHSASATGNVCIEEIDVDGKFIRLKNTSEQDQPMGGWEMIRKIGDTSVSYKYTSRYVLKAGQTVTIWAANAGVTASPPTDLIWKNQNSWGTGEDVKVILKNSQGEEVAQRSTVFKTTIPEEE,not failed
17,MTVLKGDNLEILKTIESSSIDLIYMDPPFFTQKTQKLSNNKNIMYSFEDTWTSIEDYKEFLSVRLEECKRVLKNSGSIFVHCDKIANHHIRLILDNIFGVDMFQSEIIWNYKRWSNSKKGLLNNHQNIYFYSKSKDFKFNTIFTEYSSTTNIDQILVERKRDGNSKTIYKVDNNGNYILAKEKNGVPLSDVWNIPFLNPKAKERVGYPTQKPILLLEQIIKIATDKNDIVLDPFCGSGTTLVASKILNRNYMGIDLSEEAINITQQRLENVIKTSSNLLNKGIE,failed
